In US20160130329A1 (UNIVERSITY OF CHICAGO, published 2016):
Numbering of substitutions follows the chain as printed. Where no end group is shown, it is not given here. [ ]: non-standard residue; d: D form. Lys(Me3) = C[N+](C)(C)CCCC[C@H](N)C(=O)O

Key:
[1] = target: T1, H3K27me3 peptide (trimethyl-lysine at K27 (histone H3 numbering); biotinylated through the GYCD tag); assay: phage ELISA [A]
T1 peptide: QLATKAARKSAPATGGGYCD

[2] = target: T2, H4K20me3 peptide (trimethyl-lysine at K20 (histone H4 numbering); biotinylated through the GYCD tag); assay: phage ELISA [A]
T2 peptide: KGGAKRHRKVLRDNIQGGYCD

[3] = target: T3, H3K4me3 peptide (also: biotinylated, site not given here); assay: phage ELISA [A]
T3 peptide: ART[Lys(Me3)]QTARKSTGGYCD

[4] = target: T1, H3K27me3 peptide; assay: yeast display, flow cytometry [A]
[5] = target: T2, H4K20me3 peptide; assay: yeast display, flow cytometry [A]
[6] = target: T3, H3K4me3 peptide; assay: yeast display, flow cytometry [A]
[7] = target: T1, H3K27me3 peptide; assay: yeast display, flow cytometry [B]
[8] = target: T4, H3K36me3 peptide (K(me3) at H3 K36; K(biotin) near the C-terminus, as printed: SAPATGGVK-K(me3)-PHRYRPGG-K(biotin)-D); assay: yeast display, flow cytometry [B]
T4 peptide: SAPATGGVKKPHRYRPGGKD

[9] = target: T3, H3K4me3 peptide; assay: yeast display, flow cytometry [B]
[10] = target: T3, H3K4me3 peptide; assay: quantitative peptide IP assay
[11] = target: T4, H3K36me3 peptide; assay: peptide IP assay (FIG. 8B)
[12] = target: T5, H3K56me3 peptide (K(me3) at H3 K56; K(biotin) near the C-terminus, as printed: LREIRRYQ-K(me3)-STELLIRGG-K(biotin)-D); assay: peptide IP assay (FIG. 8B)
T5 peptide: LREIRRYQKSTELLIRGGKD

[13] = target: T3, H3K4me3 peptide; assay: quantitative peptide IP assay, biotinylated Fab on streptavidin beads, flow cytometry
[14] = target: T3, H3K4me3 peptide; assay: peptide IP assay (antibody on beads, flow cytometry)
[15] = target: T6, cross-linked chromatin from HEK293T cells; assay: cross-linked ChIP from HEK293T cells followed by qPCR
T6 construct: A protein-DNA complex

[16] = target: T4, H3K36me3 peptide; assay: peptide IP assay (antibody on beads, flow cytometry)
[17] = target: T5, H3K56me3 peptide; assay: as above
[18] = target: T2, H4K20me3 peptide; assay: as above
[19] = target: T3, H3K4me3 peptide; assay: as above

B1: 9H2 (scFv)
scFv: EVQLVETGGGVVQPGRSLRLSCTASGFTFRDHWMSWVRQAPGKGLEWVADIDQEGRWGYYLDAVKGRFTISRDNAKSSLYLQMNSLGAEDTAVYYCARDFLVGFGWHFDLWGRGTLVTVSSSYVLTQPPSVSVAPGQTARITCGGTNIGDISVHWYQQRPGQAPLVVVYDDSDRPSGIPERFSGSNSGNTATLTISRVEAGDEADYYCQVWDDSINAYVFGTGTKVTVL
Question: Does B1 bind [1]?
Answer: Result: no binding (tested: 100 nM peptide)

Question: Does B1 bind [2]?
Answer: Result: no binding (tested: 100 nM peptide)

Question: Does B1 bind [3]?
Answer: Result: no binding (tested: 100 nM peptide)

B2: 36H3 (scFv)
scFv: EVQLVETGGGVVQPGRSLRLSCTASGFTFRDYWMSWVRQAPGKGLEWVADLNKDGKYAYYLDAVKGRFTISRDNAKSSLYLQMNSLGAEDTAVYYCARDFVRGSGWHFDLWGRGTLVTVSSSYVLTQPPSVSVAPGQTARITCGGTNIGDISVHWYQQRPGQAPLVVVYDDSDRPSGIPERFSGSNSGNTATLTISRVEAGDEADYYCQVWDDSINAYVFGTGTKVTVL
Question: Which results are given for B2?
Answer: binding result [4]: no binding (tested: 500 nM); binding result [5]: no binding (tested: 500 nM); binding result [6]: no binding (tested: 500 nM)

B3: 20H1 (scFv)
scFv: B1 scFv with H32N, D52N, E54N, W57Y, G58F, L61I, D99A, L101Q, V102R, F104R
Question: Does B3 bind [7]?
Answer: Result: no binding (tested: 500 nM)

Question: Does B3 bind [8]?
Answer: Result: no binding (tested: 500 nM)

Question: Does B3 bind [9]?
Answer: Result: no binding (tested: 500 nM)

B4: 304M3-A (Fab, V domains shown)
VH: EVQLVETGGGVVQPGRSLRLSCTASGFTFRDYWMSWVRQAPGKGLEWVADINQDGSALYYVDAVKGRFTISRDNAKSSLYLQMNSLGAEDTAVYYCARDLIYGFGWHFDLWGRGTLVTVSS
VL: not shown
notes: Produced and characterized in the same manner as 309M3-A: biotinylated Fab with a biotinylation acceptor peptide at the C-terminus of the heavy chain; also called recombinant anti-H3K4me3 antibody; 304M3-A antibody
Question: Which results are given for B4?
Answer: fold increase in affinity compared with the lead antibody (scFv 4-5) [10]: 360 fold; binding result [11]: no binding; binding result [12]: no binding; Kd [13]: 16 nM; Kd [14]: 20 nM

B5: 309M3-A (Fab, V domains shown)
VH: B4 VH with Y32H, Q53G, G55S, S56I, A57L, L58E, L100F, I101H, Y102R, F104Y
VL: not shown
notes: also called recombinant anti-H3K9me3 antibody; 309M3-A antibody
Question: How did the “ChIP enrichment relative to pAb-056-050 (lot A93-0042)” value [15] turn out when B5 was run?
Answer: Its value is roughly 3 fold.

Question: Does B5 bind [16]?
Answer: Result: no binding (tested: 500 nM)

Question: Does B5 bind [17]?
Answer: Result: no binding (tested: 500 nM)

Question: Does B5 bind [1]?
Answer: Result: no binding (tested: 100 nM peptide)

Question: Does B5 bind [18]?
Answer: Result: no binding (tested: 500 nM)

Question: Does B5 bind [19]?
Answer: Result: no binding (tested: 500 nM)
